Here are results for 2 molecules from paper PMC7659708, “Genetically encoded live-cell sensor for tyrosinated microtubules” (The Journal of Cell Biology, 2020).

Holding throughout (conditions): both partners purified
In one test the target is T1, biotin-TUBA1A 440-451 (human).
T1 construct: C-terminal tail of human alpha-tubulin TUBA1A, amino acids 440-451, tyrosinated; source: synthetic peptide (Thermo Fisher Scientific)
T1 peptide: Biotin-VEGEGEEEGEEY
The test can be described thus: SPR; steady-state binding assay, Biacore-T200; biotinylated peptides immobilized on a streptavidin (SA) sensor chip at 100-300 response units; A1aY1 titrated from 0.031 to 200 µM; 1x HBS-P+ (10 mM Hepes, 150 mM NaCl, 0.05% surfactant P20), 30 µl/min; 1:1 binding considered, one site total fit.

For a further test, the target named is T2, biotin-TUBA1A 440-450 (human).
T2 construct: C-terminal tail of human alpha-tubulin TUBA1A, amino acids 440-450, without the terminal tyrosine (detyrosinated); source: synthetic peptide (Thermo Fisher Scientific)
T2 peptide: Biotin-VEGEGEEEGEE
The test is described as above.

Test [1] addresses T3, biotin-TUBA1A 440-451-[E]445 (human).
T3 construct: C-terminal tail of human alpha-tubulin TUBA1A, amino acids 440-451, printed VEGEG[E]EEGEEY with [E] the monoglutamylated residue 445; source: synthetic peptide (Thermo Fisher Scientific)
T3 peptide: Biotin-VEGEGE(Glu)EEGEEY
The test is described as above.

A further test addresses T4, biotin-Tub84B 438-450 (Drosophila).
T4 construct: C-terminal tail of Drosophila alpha-tubulin Tub84B; they would span 439-450 if the last residue is 450; source: synthetic peptide (LifeTein)
T4 peptide: Biotin-SGDGEGEGAEEY
Described as above.

In the next test the target is T5, biotin-Tba-1 437-449 (C. elegans).
T5 construct: C-terminal tail of C. elegans alpha-tubulin Tba-1, amino acids 437-449; source: synthetic peptide (LifeTein)
T5 peptide: Biotin-SNEGGNEEEGEEY
Described as above.

In test [2] the target is T6, 13C-15N isotope-labeled A1aY1 protein (thrombin-cleaved) (13C, 15N isotope-labeled).
T6 construct: A1aY1, an SSO7D mutant selected from a combinatorial yeast display library; source: E. coli Rosetta (DE3) grown in M9 media, purified (Ni-NTA, SEC, thrombin cleavage, SEC); not shown: His6, N-terminal, cleaved
T6 chain: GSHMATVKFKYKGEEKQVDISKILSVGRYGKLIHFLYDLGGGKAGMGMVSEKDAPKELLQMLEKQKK
Kind of test: NMR titration; 1H-15N HSQC of 13C,15N-labeled A1aY1 with nonbiotinylated peptides added at 0.5 to 7 equivalents (Hs_TUBA1A) or 1 to 4 equivalents (Hs_TUBA1A-ΔY); 25°C.

Several values for one entry are separate records, joined by “and”; a condition that tells them apart may be missing. Equal entries are not always repeated. Where no end group is shown, it is not given here. The star is where a group is joined. Biotin = O=C1N[C@H]2[C@H](CS[C@H]2CCCCC(=O)*)N1 Where only a bound is given, the exact number is not on record here.

B1: A1aY1 binder (designed binder)
chain: MATVKFKYKGEEKQVDISKILSVGRYGKLIHFLYDLGGGKAGMGMVSEKDAPKELLQMLEKQKK
notes: A1aY1, an SSO7D mutant selected from a combinatorial yeast display library; (His6, thrombin site, A1aY1); Protein used in the SPR steady-state titrations; The results say 'without any tags'; the methods describe the stored protein as 9.3 kD, which is the size with His6 and thrombin site, and tell of thrombin cleavage only for the NMR sample; also called tyrosination sensor; source: E. coli …
With B1, the Kd is 1.6 ± 0.3 µM in the test with biotin-TUBA1A 440-451; > 60 µM with biotin-TUBA1A 440-450; 13.6 ± 4.5 µM in test [1]; 4.1 µM and 4 µM in the test with biotin-Tub84B 438-450; 1 ± 0.2 µM with biotin-Tba-1 437-449.

B2: nonbiotinylated Hs_TUBA1A peptide (peptide)
peptide: VEGEGEEEGEEY
notes: C-terminal tail of human alpha-tubulin TUBA1A, amino acids 440-451, tyrosinated, without biotin; also called tyrosinated peptide; α-tubulin CTT peptide; source: synthetic peptide (LifeTein)
B2: the binding result in test [2] is “binds”.

In general, Kd refers to the equilibrium constant for the complex coming apart. High values mean a looser complex, low ones a tighter complex.
